Source: patent publication US20230137032A1 (GlaxoSmithKline, published 2023)
Positions count from the first letter of the chain named.

Key:
[1] = target: T1, recombinant human BCMA Fc 4-53 (human); test: ELISA, neutralisation of ligand binding to plate-coated BCMA Fc 4-53; competitor BAFF; competitor BAFF
T1 construct: also called Human BCMA CD33-hBCMA ECD (4-53) TEV-Fc; recombinant BCMA
Procedure: (§1) 96 well flat bottomed plates were coated overnight with 1 μg/mL solution of recombinant human BCMA Fc 4-53 in PBS. Following a wash step using 0.05% TWEEN20, plates were blocked with 2% Bovine Serum Albumin solution in PBS for 1 hour at room temperature. […] 40 μL of 2% BSA was added to the relevant control wells. […] Equivalent volume of 2% BSA was added to the relevant control wells. Plates were allowed to incubate for 2 hours at room temperature, after which they were washed as before. […] Following a wash step, 50 µL of a 1:4000 dilution of Streptavidin-HRP (Amersham RPN4401) was added to each well and incubated for 30 minutes at room temperature. The wash process was repeated again followed by the addition of […] of Tetramethylbenzidine substrate solution (T8665, Sigma) into each well. Plates were incubated for 20-25 minutes at room temperature, wrapped in foil. The reaction was stopped with the addition of […] of 1M H₂SO₄. Optical density was determined at 450 nm using Spectromax reader.

[2] = target: T2, human BCMA expressed on cells (human, UniProt Q02223 1-184); test: cell-based or functional assay
T2 sequence (looked up): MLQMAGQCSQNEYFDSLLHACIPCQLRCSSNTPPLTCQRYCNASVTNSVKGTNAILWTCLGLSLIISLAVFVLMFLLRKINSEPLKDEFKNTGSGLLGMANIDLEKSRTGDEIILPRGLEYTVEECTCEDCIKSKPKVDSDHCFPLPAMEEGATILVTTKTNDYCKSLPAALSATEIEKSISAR

[3] = target: T1, recombinant human BCMA Fc 4-53; test: competition ELISA: binding of recombinant human APRIL to coated recombinant human BCMA Fc 4-53, biotinylated anti-APRIL and streptavidin-HRP, % of control
Procedure: as §1

[4] = target: T1, recombinant human BCMA Fc 4-53; test: competition ELISA: binding of recombinant human BAFF to coated recombinant human BCMA Fc 4-53, biotinylated anti-BAFF and streptavidin-HRP, % of control
Procedure: as §1

[5] = target: T1, recombinant human BCMA Fc 4-53; test: ELISA, neutralisation of ligand binding to plate-coated BCMA Fc 4-53; competitor APRIL; competitor APRIL
Procedure: as §1

[6] = target: T3, recombinant human BCMA, commercial (US Biological, B0410) (human, UniProt Q02223 5-54, limits assumed); test: Biacore T100, antibody captured on Protein A, 37C, experiment 1
T3 construct: also called commercial human BCMA; Human commercial BCMA
T3 chain (looked up): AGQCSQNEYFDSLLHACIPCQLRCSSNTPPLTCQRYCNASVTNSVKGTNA
Procedure: (§2) Protein A was immobilised on a CMS chip (GE Healthcare, Cat No: BR-1005-30) by primary amine coupling and this surface was then used to capture the antibody molecules. Recombinant human BCMA (US Biological, B0410) was used as analyte at 256 nM, 64 nM, 16 nM, 4 nM and 1 nM. Regeneration of the capture surface was carried out using 50 mM NaOH. All binding curves were double referenced with a buffer injection (i.e. 0 nM) the data was fitted to the using the 1:1 model inherent to T100 evaluation software. The run was carried out at 25° C. and 37° C. for experiment 1 and only 37° C. for experiment 2 using HBS-EP as the running buffer.

[7] = target: T2, human BCMA expressed on cells; test: FACS on ARH77-hBCMA 10B5 transfectant cells, PE anti-human IgG, MFI
Procedure: Cells were then washed with FACS buffer (PBS+0.5% BSA+0.1% sodium azide) to remove unbound antibody. Cells were incubated with a secondary PE labelled anti-human IgG antibody for 15 minutes at RT and then washed with FACS buffer to remove unbound antibody. Cells were analysed by FACS and mean fluorescence intensity (MFI) values measured to determine binding.

[8] = target: T4, recombinant human BCMA, in house material (human, UniProt Q02223 4-53, limits assumed); test: ProteOn SPR run 2, antibody captured on Protein A, 25C; Run 2 (Table 9)
T4 construct: also called Human in house BCMA; In house human BCMA
Procedure: (§3) The initial screen of CA8 chimeric and humanised variants was carried out on the ProteOn XPR36 (Biorad). The method was as follows; Protein A was immobilised on a GLC chip (Biorad, Cat No: 176-5011) by primary amine coupling, CA8 variants were then captured on this surface and recombinant human BCMA (in house or commercial US Biological, B0410) materials (run 2 only)) passed over at 256, 64, 16, 4, 1 nM with a 0 nM injection (i.e. buffer alone) used to double reference the binding curves, the buffer used is the HBS-EP buffer. 50 mM NaOH was used to regenerate the capture surface. The data was fitted to the 1:1 model using the analysis software inherent to the ProteOn XPR36. […] Both runs were carried out at 25° C.

[9] = target: T3, recombinant human BCMA, commercial (US …); test: Biacore T100, antibody captured on Protein A, 37C, experiment 2
Procedure: as §2

[10] = target: T5, recombinant cyno BCMA, in house material (cyno, UniProt A0A2K5UD97 4-52); test: ProteOn SPR run 2, antibody captured on Protein A, 25C
T5 construct: also called Cyno in house BCMA

[11] = target: T3, recombinant human BCMA, commercial (US …); test: as above
[12] = target: T3, recombinant human BCMA, commercial (US …); test: Biacore T100, antibody captured on Protein A, 25C, experiment 1
Procedure: as §2

[13] = target: T2, human BCMA expressed on cells; test: FACS on ARH77-hBCMA 10B5 transfectant cells, antibody 5 µg/mL, PE anti-mouse IgG
Procedure: (§4) Cells were incubated for 20 mins at room temperature (RT) and then washed with FACS buffer (PBS+0.5% BSA+0.1% sodium azide) to remove unbound antibody. Cells were incubated with a secondary PE labelled anti-mouse IgG antibody for 15 minutes at RT and then washed with FACS buffer to remove unbound antibody. Cells were analysed by FACS to detect antibody bound to the cells.

[14] = target: T4, recombinant human BCMA, in house …; test: ProteOn SPR, antibody captured on Protein A, 25C
Procedure: The initial screen of the new chimeric variants from the second batch of hybridomas was carried out on the ProteOn XPR36 (Biorad). The method was as follows; Protein A was immobilised on a GLM chip (Biorad, Cat No: 176-5012) by primary amine coupling, anti-BCMA variants were then captured on this surface and recombinant human BCMA (in house material) passed over at 256, 64, 16, 4, 1 nM with a 0 nM injection (i.e. buffer alone) used to double reference the binding curves, the buffer used is the HBS-EP buffer. Regeneration of the capture surface was carried out using 50 mM NaOH. The data was fitted to the 1:1 model using the analysis software inherent to the ProteOn XPR36. The run was carried out at 25° C.

[15] = target: T2, human BCMA expressed on cells; test: FACS on H929 multiple myeloma cells, PE anti-mouse IgG
Procedure: as §4

[16] = target: T4, recombinant human BCMA, in house …; test: ProteOn SPR run 1, antibody captured on Protein A, 25C; Run 1 (Table 8)
Procedure: as §3

[17] = target: T2, human BCMA expressed on cells; test: FACS on H929 multiple myeloma cells, antibody 5 µg/mL, PE anti-mouse IgG
Procedure: as §4

B1: J6M0 potelligent antibody (afucosylated humanised CA8 J6M0) (antibody, human IgG1, kappa, V domains shown)
VH: QVQLVQSGAEVKKPGSSVKVSCKASGGTFSNYWMHWVRQAPGQGLEWMGATYRGHSDTYYNQKFKGRVTITADKSTSTAYMELSSLRSEDTAVYYCARGAIYDGYDVLDNWGQGTLVTVSS
VL: DIQMTQSPSSLSASVGDRVTITCSASQDISNYLNWYQQKPGKAPKLLIYYTSNLHSGVPSRFSGSGSGTDFTLTISSLQPEDFATYYCQQYRKLPWTFGQGTKLEIKR
modifications: afucosylated (Potelligent) Fc glycan
notes: human IgG1 kappa; also called J6M0 potelligent version; CA8 J6M0 Potelligent
EC50 [1]: 0.748 µg/mL
IC50 for inhibition of APRIL signalling (phosphorylated NFkappaB in washed H-929 cells) [2]: 2.43 µg/mL
IC50 for inhibition of BAFF signalling (phosphorylated NFkappaB in washed H-929 cells) [2]: 0.91 µg/mL
IC50 (read off the curve) [3]: ~0.6 µg/mL
IC50 (read off the curve) [4]: ~0.7 µg/mL
EC50 [5]: 0.616 µg/mL

B2: CA8 humanised J6M0 (antibody, human IgG1, kappa, V domains shown)
VH: B1 VH
VL: B1 VL
notes: Humanised CA8, heavy chain J6 with light chain M0, human IgG1 kappa; also called CA8 J6M0; humanised J6M0 (wild type)
EC50 [1]: 0.776 µg/mL
Kd [6]: 0.698 nM
IC50 (read off the curve) [3]: ~0.6 µg/mL
IC50 (read off the curve) [4]: ~0.7 µg/mL
binding result [7]: binds
Kd [8]: 0.308 nM
Kd [9]: 0.498 nM
EC50 [5]: 0.63 µg/mL
Kd [10]: 5.63 nM
Kd [11]: 0.086 nM
Kd [12]: 0.121 nM

B3: murine S332126E04 (antibody, V domains shown)
VH: QVQLQQPGAELVKPGASVKLSCKASGYTFTNYWMHWVKQRPGQGLEWIGIIHPNSGSTNYNEKFKSKATLTVDKSSSTAYMQLSSLTSEDSAVYYCARGIYDYPFAYWGQGTLVTVSS
VL: DIVLTQSPASLAVSLGQRATISCRASESVSIHGTHLMHWYQQKPGQPPKLLIYAASNLESGVPARFSGSGSETDFTLNIHPVEEEDAATYFCQQSIEDPYTFGGGTKLEIKR
notes: Murine hybridoma antibody
binding result [13]: binds

B4: S332121F02 chimeric antibody (antibody, human IgG1, kappa, V domains shown)
VH: EVQLQQSGPVLVKPGASVKMSCEASGYTFTDYYMNWVKQSHGKTLEWIGVINPYNGGTDYNQKFKGKATLTVDKSSSTAYMELNSLTSEDSAVYYCARSVYDYPFDYWGQGTLVTVSS
VL: B3 VL with Y100R
notes: Section 4.10 says that the samples are new chimeric constructs (human IgG1 kappa)
Kd [14]: 17.3 nM

B5: murine S307118G03 (antibody, IgG2a, V domains shown)
VH: EVQLQQSGPELVKPGASVKISCKASGYTFTDYYMKWVKQSHGKSLEWIGEIYPNNGGITYNQKFKGKATLTVDKSSSTAYMELRSLTSEDSAVYYCANGYEFVYWGQGTLVTVSA
VL: DIQMTQTASSLSASLGDRVTISCSASQGISNYLNWYQQKPDGTVKLLIYYTSSLHSGVPSRFSGSGSGTDYSLTISNLEPEDIATYYCQQYSKLPWTFGGGTKLEIKR
notes: Murine hybridoma antibody; also called S307118G03 (murine parental mAb)
binding result [15]: binds

B6: S307118G03 Chimera (antibody, human IgG1, kappa, V domains shown)
VH: B5 VH
VL: B5 VL with I106L
notes: also called chimeric S307118G03
Kd [8]: 3.44 nM
binding result [10]: no binding
Kd [11]: 0.956 nM
Kd [16]: 4.11 nM

B7: murine S322110D07 (antibody, V domains shown)
VH: EVQLQQSGPELVKPGTSVKIPCKTSGYIFTDYSIDWVKQSHGKSLEWIGDIDPNYGDPIYNHKFKGKATLTVDRSSSTAYMELRSLTSEDTAVYFCARRATGTDWFAFWGQGTLVTVSS
VL: DIQMTQSPASLSVSVGETVTITCRASENIYNNLAWYQQKQGKSPQLLVYAATILADGVPSRFSGSGSGTQYSLKINSLQSGDFGTYYCQHFWGTPLTFGAGTKLELKR
notes: Murine hybridoma antibody; also called S3222110D07; S3322110D07
binding result [17]: binds

B8: S322110D07 chimeric antibody (printed S332110D07 in Table 12) (antibody, human IgG1, kappa, V domains shown)
VH: B7 VH
VL: B7 VL
notes: Section 4.10 says that the samples are new chimeric constructs (human IgG1 kappa); also called chimeric S322110D07
Kd [14]: 12.1 nM

B9: murine S332121F02 (antibody, V domains shown)
VH: B4 VH
VL: DIVLTQSPASLAVSLGQRATISCRASESVSIHGTHLMHWYQQKPGQPPKLLIYAASNLESGVPARFSGSGSETDFTLNIHPVEEEDAATYFCQQSIEDPRTFGGGTKLEIK
notes: Murine hybridoma antibody
binding result [17]: binds
